Results from patent US20150118710.
“And” between values parts separate entries of the source, which are not always exact repeats. Equal entries are not always repeated.

B1: ΔKex2p, 660 amino acid functional domain of Kexin endoprotease (Kex2p) from Pichia pastoris (protein)
chain: MYLPALRLACWILIGLRSTEALETSEREIFALKLDKSWLPTFLETFQDKFRYERQINGLDDYHVFSHSKNEEFQLENFKVKTLLTRDNANLHSELISHNVDEVHMLRPSHYLHKRAPVVMDKSEELREQIAKDFDIDDPLFAKQWHLFNPRYPGHDVNVSQVWYDGITGKGVVTAIVDDGLDMDSKDLKESFCEEGSWDFNANTRLPKPRLRDDHHGTRCAAEIAAKKGNKYCGVGVAYDSKVSGIRILSDKITPEDEALSLIYGLDVNDIYSCSWGPADNGITMQGPSSLVKEAMLKGVQDGRKGKGALYVFASGNGASSGDNCNFDGYTNSIYSITVGAIDIKGLHPPYAEACSAVMTVTYSSGSGEHIHTTDINDKCSDTHGGTSAAAPLAAGLYSLVYQANPDLTWRDIQWLTVLTAVPVNEQEPGWQKTAIGKMYSHKYGYGKIDAYALVNLARSPDFPYLKPQSWIYGTEVHESLNTSEANGVLTSKYELTQEAKDLMNFEKIEHVTVTVDIKAAERGKVLVELISPSGVVSELAPYRRMDKDKEGFPNWTFMSVAHWGEDGLGEWILKITNKEGNSVVLNSWQIKFFGESQDPEKAEKFSLTKKYDEILVNPPSSSTSTTVDTSSTEATFSSSSVSEASATETDVKETSTTGD

What was measured:
[1] = tested on: Insulin glargine single chain precursor (Fglargine), glargine pro-peptide
[2] = target: Insulin glargine single chain precursor (Fglargine), glargine pro-peptide; remark: listed apart in the source

Row | Molecule | % conversion achieved (HPLC peak areas) [1] | % yield increased (two chain glargine), clone without co-expression [1] | secretion of two chain glargine (mass analysis of secreted product) [1] | % conversion achieved (HPLC peak areas), Clone #2F6, GAP promoter [2] | % conversion achieved (HPLC peak areas), Clone #3C1, GAP promoter [2] | % conversion achieved (HPLC peak areas), Clone #4B7, GAP promoter [2] | % conversion achieved (HPLC peak areas), Clone #5C5, GAP promoter [2] | % conversion achieved (HPLC peak areas), Clone #IB4, GAP promoter [2] | % conversion achieved (HPLC peak areas), Clone# 6D6, GAP promoter [2] | % yield increased (two chain glargine), FLD1 promoter [2] | % yield increased (two chain glargine), GAP promoter [2]
1 | endogenous Kex2p (Kexin endoprotease) of Pichia pastoris | 0% | 5% and 0% | it is not possible to secrete two chain glargine directly into the medium using endogenous Kex2p alone |  |  |  |  |  |  |  | 
2 | B1 |  |  |  | 9.44% | 31.4% | 33.6% | 45% | 13% | 59.5% | > 93% | 60%
